This is an account of results in patent US20060024296A1 (AbbVie / Abbott, published 2006).

Assay [1] addresses T1, human CS1 (native, on K562 and Daudi cells) (human, UniProt Q9NQ25 23-335).
T1 construct: K562 and Daudi cells 'are known to express native CS1'; also called SLAMF7; CRACC
Put plainly: FACS, K562 cells. A general note: A flow cytometer gives signals particle by particle.

The target in assay [2] is T2, CS1 ECD-myc-GPI fusion protein on NSO cells (human, UniProt Q9NQ25 23-226, glycosyl phosphatidylinositol linkage for cell surface expression). Put plainly: cell-based or functional assay.
For assay [3], the target named is T2, CS1 ECD-myc-GPI fusion protein on NSO …. The assay is described as follows: FACS, NSO-CS1 cells.
For assay [4], the target named is T3, mu25/hu75 chimeric CS1-Fc (human/mouse chimera; human).
T3 construct: entry starts with the signal peptide; not shown: human gamma 1 Fc tag of the NIF Fc vector
Put plainly: sandwich ELISA, Fc-captured construct. On the technique in general: ELISA stands for enzyme-linked immunosorbent assay.

For assay [5], the target named is T4, hu75/mu25 chimeric CS1-Fc (human/mouse chimera; human).
T4 construct: entry starts with the signal peptide; not shown: human gamma 1 Fc tag of the NIF Fc vector
T4 chain: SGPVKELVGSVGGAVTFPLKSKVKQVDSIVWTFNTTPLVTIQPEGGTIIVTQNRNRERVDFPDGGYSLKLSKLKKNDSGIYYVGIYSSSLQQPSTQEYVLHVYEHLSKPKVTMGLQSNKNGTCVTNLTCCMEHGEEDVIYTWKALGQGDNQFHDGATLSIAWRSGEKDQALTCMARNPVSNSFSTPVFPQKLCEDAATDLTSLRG
The assay is described as follows: sandwich ELISA, Fc-captured construct.

In assay [6] the target is T5, huCS1 (human CS1 extracellular domain, amino acids 1-227, fused to human gamma 1 Fc) (human, UniProt P01857-1 99-330 = IgG part).
T5 construct: domain: human Fc tag; secreted protein in 293/T supernatant; also called human CS1-Fc
The assay is described as follows: sandwich ELISA, Fc-captured construct.

In assay [7] the target is T1, human CS1 (native, on K562 and Daudi …). The assay is described as follows: FACS, Daudi cells.
In assay [8] the target is T6, NSO-FcRn.
T6 construct: negative control transfectant; also called FcRn on NSO cells
Put plainly: FACS, NSO-FcRn cells.

The target in assay [9] is T7, human CS1-Fc fusion protein (human, UniProt Q9NQ25 23-226, limits assumed).
T7 construct: analyte of the BIAcore experiment; not shown: Fc part
Put plainly: SPR BIAcore 2000. On the technique in general: SPR reads the build-up and loss of mass on a sensor chip optically.

For assay [10], the target named is T7, human CS1-Fc fusion protein. Put plainly: SPR BIAcore 2000, antibody immobilised, CS1-Fc analyte, bivalent analyte model.
Assay [11] concerns the target T8, CS1 ECD-Fcγ3 fusion protein (human, UniProt Q9NQ25 23-226).
T8 construct: also called CS1-G3; CS1-γ3; not shown: constant region of IgG3 (human Fc-γ3)
The assay is described as follows: direct binding ELISA, coated human CS1-human Fcγ3.

B1: Luc90 (antibody, IgG2b, V domains shown)
VH: QVQLQQPGAELVRPGASVKLSCKASGYSFTTYWMNWVKQRPGQGLEWIGMIHPSDSETRLNQKFKDKATLTVDKSSSTAYMQLSSPTSEDSAVYYCARSTMIATRAMDYWGQGTSVTVSS
VL: DIVMTQSQKSMSTSVGDRVSITCKASQDVITGVAWYQQKPGQSPKLLIYSASYRYTGVPDRFTGSGSGTDFTFTISNVQAEDLAVYYCQQHYSTPLTFGAGTKLELK
notes: mouse monoclonal, IgG2b; subclone Luc90.H1 used in BIAcore; also called Luc90-H1, D9; Luc90.H1
As a reminder, the koff is the first-order rate constant of dissociation. Broadly, the kon is a measure of how fast the partners come together. Low values mean slow association, high ones fast association. As for B1, the “FACS (MFI)” value was 9.7 MFI in assay [1], 237 MFI in assay [3], 10.1 MFI in assay [7] and below 5 MFI in assay [8]. For the same molecule, the “cytotoxicity of the target cells (ADCC, LDH release, PBMC effectors 20:1)” value in assay [2] is around 50%. The binding result in [4] is “no binding (tested: 2 ug/ml)”; in assay [5] it was “binds”; in [6] it was “binds”. The “fold higher binding affinity than Luc34.1” value in assay [9] worked out at 28 fold. For the same molecule, the “fold higher binding affinity than Luc 63.2” value in assay [9] amounted to 5.5 fold. Also, the Kd in assay [10] was 6.29 nM. Besides, in assay [10], the koff turned out to be 0.000281 s⁻¹. Moreover, the association rate constant (kon) in [10] was 45600 M⁻¹ s⁻¹.

B2: HuLuc63 (antibody, human IgG1, V domains shown)
VH: EVQLVESGGGLVQPGGSLRLSCAASGFDFSRYWMSWVRQAPGKGLEWIGEINPDSSTINYAPSLKDKFIISRDNAKNSLYLQMNSLRAEDTAVYYCARPDGNYWYFDVWGQGTLVTVSS
VL: DIQMTQSPSSLSASVGDRVTITCKASQDVGIAVAWYQQKPGKVPKLLIYWASTRHTGVPDRFSGSGSGTDFTLTISSLQPEDVATYYCQQYSSYPYTFGQGTKVEIK
notes: human IgG1/κ, transiently expressed in 293-H cells; also called humanized Luc63; HuLuc63 IgG1/κ antibody
As a reminder, the EC50 is the concentration that produces a half-maximal response. As for B2, the EC50 in [11] amounted to 0.0701 µg/mL.

B3: Luc34 (antibody, IgG1, V domains shown)
VH: QVQLQQSGAELARPGASVKLSCKASGYTFTSYWMQWVKQRPGQGLEWIGAIYPGDGDTRYTQKFKGKATLTADKSSSTAYMQLSSLASEDSAVYYCARGKVYYGSNPFAYWGQGTLVTVSA
VL: DIQMTQSSSYLSVSLGGRVTITCKASDHINNWLAWYQQKPGNAPRLLISGATSLETGVPSRFSGSGSGKDYTLSITSLQTEDVATYYCQQYWSTPWTFGGGTKLEIK
notes: subclone Luc34.1 used in BIAcore; also called Luc34-1; Luc34-3
For B3, the “FACS (MFI)” value was 26.2 MFI in [1], 127 MFI in assay [3], 10.3 MFI in [7] and below 5 MFI in assay [8]. The results for the binding result in [4], in [5] and in assay [6] were “no binding (tested: 2 ug/ml)”, “binds” and “binds”, respectively. In assay [10], the Kd was determined as 173 nM. In addition, the off-rate (koff) in [10] came to 0.00127 s⁻¹. The same molecule yielded a kon in assay [10] of 7480 M⁻¹ s⁻¹.

B4: Luc63 (antibody, IgG2a, V domains shown)
VH: EVKLLESGGGLVQPGGSLKLSCAASGFDFSRYWMSWVRQAPGKGLEWIGEINPDSSTINYTPSLKDKFIISRDNAKNTLYLQMSKVRSEDTALYYCARPDGNYWYFDVWGAGTTVTVSS
VL: DIVMTQSHKFMSTSVGDRVSITCKASQDVGIAVAWYQQKPGQSPKLLIYWASTRHTGVPDRFTGSGSGTDFTLTISNVQSEDLADYFCQQYSSYPYTFGGGTKLEIK
notes: mouse monoclonal, IgG2a; also called Lu 63; Luc63-1
B4: the “FACS (MFI)” value was 15.8 MFI in assay [1], 214 MFI in assay [3], 12.7 MFI in assay [7] and below 5 MFI in assay [8]. For the same molecule, the EC50 in assay [11] came out at 0.0661 µg/mL. The same molecule gave a Kd in assay [10] of 34.6 nM.

B5: Luc69 (antibody, V domains shown)
VH: QVQLQQSGPELVKPGASVKISCKASGYAFSNSWMNWVKQRPGQGLEWIGRIYPGDGDTKSNGKFKGKATLTADKSSRAAYMQLSSLTSVDSAVYFCARSTMIMTGAMDYWGQGTSVTVSS
VL: DIVMTQSHKFMSTSVGDRVIITCKASQDVSTAVAWYQQKPGQSPKLLIYSASFRYTGVPDRFTGSGSGTDFTFTVSSVQAEDLAVYYCQQHYSTPPYTFGGGTKLEIK
notes: mouse monoclonal
For the molecule B5, the binding result in [4] was “no binding (tested: 2 ug/ml)”; in assay [5], “binds”; in assay [6] it was “binds”.
